Holding throughout (assay type): tissue-based
Compound in series [1]: CC(=O)Oc1cccc(C(=O)Nc2nnc(-c3ccc(C)cc3)s2)c1
Put plainly: (§1) Inhibition of albino mouse brain AChE assessed as Km for substrate using acetylthiocholine iodide as substrate measured for 2 mins by Ellmans method.

Compound in series [2]: CC(=O)Oc1cccc(C(=O)Nc2nnc(-c3ccccc3)s2)c1
The series is described as §1.

Compound in series [3]: CC(=O)Oc1cccc(C(=O)Nc2nnc(-c3ccccc3Cl)s2)c1
The series is described as §1.

Compound in series [4]: CC(=O)Oc1cccc(C(=O)Nc2nnc(Cc3ccccc3)s2)c1
The description is as §1.

Compound in series [5]: CC(CC(=O)Nc1nnc(-c2cccc(Cl)c2)s1)CC(C)(C)C
The description is as §1.

Compound in series [6]: CC(CC(=O)Nc1nnc(-c2ccccc2)s1)CC(C)(C)C
Described as §1.

Compound in series [7]: CC(CC(=O)Nc1nnc(Cc2ccccc2)s1)CC(C)(C)C
The series is described as §1.

Compound in series [8]: Cc1ccc(-c2nnc(NC(=O)CC(C)CC(C)(C)C)s2)cc1
Described as §1.

Compound in series [9]: Cc1ccc(-c2nnc(NC(=O)c3cc(C(F)(F)F)cc(C(F)(F)F)c3)s2)cc1
The series is described as §1.

Compound in series [10]: Cc1ccc(-c2nnc(NC(=O)c3cccc(CCl)c3)s2)cc1
The description is as §1.

Compound in series [11]: O=C(Nc1nnc(-c2ccccc2)s1)c1cccc(CCl)c1
The series is described as §1.

Compound in series [12]: O=C(Nc1nnc(-c2ccccc2Cl)s1)c1cc(C(F)(F)F)cc(C(F)(F)F)c1
Described as §1.

Compound in series [13]: O=C(Nc1nnc(-c2ccccc2Cl)s1)c1cccc(CCl)c1
The description is as §1.

Compound in series [14]: O=C(Nc1nnc(Cc2ccccc2)s1)c1cccc(CCl)c1
The series is described as §1.

B1: Acetylcholinesterase (Mus musculus), P21836 (protein)
chain: MRPPWYPLHTPSLAFPLLFLLLSLLGGGARAEGREDPQLLVRVRGGQLRGIRLKAPGGPVSAFLGIPFAEPPVGSRRFMPPEPKRPWSGVLDATTFQNVCYQYVDTLYPGFEGTEMWNPNRELSEDCLYLNVWTPYPRPASPTPVLIWIYGGGFYSGAASLDVYDGRFLAQVEGAVLVSMNYRVGTFGFLALPGSREAPGNVGLLDQRLALQWVQENIAAFGGDPMSVTLFGESAGAASVGMHILSLPSRSLFHRAVLQSGTPNGPWATVSAGEARRRATLLARLVGCPPGGAGGNDTELIACLRTRPAQDLVDHEWHVLPQESIFRFSFVPVVDGDFLSDTPEALINTGDFQDLQVLVGVVKDEGSYFLVYGVPGFSKDNESLISRAQFLAGVRIGVPQASDLAAEAVVLHYTDWLHPEDPTHLRDAMSAVVGDHNVVCPVAQLAGRLAAQGARVYAYIFEHRASTLTWPLWMGVPHGYEIEFIFGLPLDPSLNYTTEERIFAQRLMKYWTNFARTGDPNDPRDSKSPQWPPYTTAAQQYVSLNLKPLEVRRGLRAQTCAFWNRFLPKLLSATDTLDEAERQWKAEFHRWSSYMVHWKNQFDHYSKQERCSDL
For the protein B1, the Km (usually the substrate concentration at which the rate is half of its maximum) in [1] was determined as 8.01 µM; in series [2], 1.37 µM; in series [3], 16 µM; in series [4] it was 4.47 µM; in [5], 17.7 µM; in [6], 9.09 µM. Moreover, the Km in [7] stood at 24.9 µM; in series [8], 7.86 µM; in [9], 4.89 µM; in series [10], 1.9 µM; in series [11], 16.4 µM; in [12], 2.35 µM. Also, the figures for the Km in series [13] and in series [14] were 15.3 µM and 12.9 µM, respectively.

The values above are taken from ChEMBL document CHEMBL3865823, “Ameliorative effects of amide derivatives of 1,3,4-thiadiazoles on scopolamine induced cognitive dysfunction” (Eur J Med Chem, 2016).
